Like-named read-outs stand apart in the source and are kept apart here.
B1: CD71-binding FN3 domain of SEQ ID NO: 472 (designed binder)
chain: MLPAPKNLVVSRVTEDSARLSWTAPDAAFDSFFIGYLEPQPPGEAIELYVPGSERSYDLTGLKPGTEYNVTIQGVKGGFPSLPLVATFTT
notes: Tencon-based FN3 domain
B2: CD71-binding FN3 domain of SEQ ID NO: 516 (designed binder)
chain: MLPAPKNLVVSRVTEDSARLSWTAPDAAFDSFFIGYLEPQPPGEAISLWVPGSERSYDLTGLKPGTEYNVTIQGVKGGFPSSPLVAYFTT
notes: Tencon-based FN3 domain
B3: CD71-binding FN3 domain of SEQ ID NO: 478 (designed binder)
chain: MLPAPKNLVVSRVTEDSARLSWTAPDAAFDSFFIGYLEPQPPGEAIHLYVPGSERSYDLTGLKPGTEYNVTIQGVKGGFPSVPLIAKFTT
notes: Tencon-based FN3 domain
B4: CD71-binding FN3 domain of SEQ ID NO: 529 (designed binder)
chain: MLPAPKNLVVSRVTEDSARLSWTAPDAAFDSFFIGYLEPQPPGEAIDLYVPGSERSYDLTGLKPGTEYNVTIQGVKGGFPSLPLQAHFTT
notes: Tencon-based FN3 domain
B5: CD71-binding FN3 domain of SEQ ID NO: 496 (designed binder)
chain: MLPAPKNLVVSRVTEDSARLSWTAPDAAFDSFFIGYLEPQPPGEAIILWVPGSERSYDLTGLKPGTEYNVTIQGVKGGFPSVPLIAQFTT
notes: Tencon-based FN3 domain
B6: CD71-binding FN3 domain of SEQ ID NO: 483 (designed binder)
chain: MLPAPKNLVVSRVTEDSARLSWTAPDAAFDSFFIGYLEPQPPGEAITLVVPGSERSYDLTGLKPGTEYNVTIQGVKGGFPSDPLVASFTT
notes: Tencon-based FN3 domain
B7: CD71-binding FN3 domain of SEQ ID NO: 447 (designed binder)
chain: MLPAPKNLVVSRVTEDSARLSWTAPDAAFDSFFIGYLEPQPPGEAIYLYVPGSERSYDLTGLKPGTEYNVTIQGVKGGFPSYPLTAQFTT
notes: Tencon-based FN3 domain
B8: CD71-binding FN3 domain of SEQ ID NO: 373 (designed binder)
chain: MLPAPKNLVVSRVTEDSARLSWTAPDAAFDSFFIGYLEPQPPGEAISLFVPGSERSYDLTGLKPGTEYNVTIQGVKGGFPSDPLVASFTT
notes: Tencon-based FN3 domain
B9: CD71-binding FN3 domain of SEQ ID NO: 400 (designed binder)
chain: MLPAPKNLVVSRVTEDSARLSWTAPDAAFDSFFIGYLEPQPPGEAIHLFVPGSERSYDLTGLKPGTEYNVTIQGVKGGFPSGPLHATFTT
notes: Tencon-based FN3 domain
B10: CD71-binding FN3 domain of SEQ ID NO: 465 (designed binder)
chain: MLPAPKNLVVSRVTEDSARLSWTAPDAAFDSFFIGYLEPQPPGEAIDLYVPGSERSYDLTGLKPGTEYNVTIQGVKGGFPSEPLWADFTT
notes: Tencon-based FN3 domain
B11: CD71-binding FN3 domain of SEQ ID NO: 473 (designed binder)
chain: MLPAPKNLVVSRVTEDSARLSWTAPDAAFDSFFIGYLEPQPPGEAIDLWVPGSERSYDLTGLKPGTEYNVTIQGVKGGFPSLPLSASFTT
notes: Tencon-based FN3 domain
B12: CD71-binding FN3 domain of SEQ ID NO: 508 (designed binder)
chain: MLPAPKNLVVSRVTEDSARLSWTAPDAAFDSFFIGYLEPQPPGEAITLSVPGSERSYDLTGLKPGTEYNVTIQGVKGGFPSEPLIAIFTT
notes: Tencon-based FN3 domain
B13: CD71-binding FN3 domain of SEQ ID NO: 476 (designed binder)
chain: MLPAPKNLVVSRVTEDSARLSWTAPDAAFDSFFIGYLEPQPPGEAIHLQVPGSERSYDLTGLKPGTEYNVTIQGVKGGFPSIPLIAVFTT
notes: Tencon-based FN3 domain
B14: CD71-binding FN3 domain of SEQ ID NO: 540 (designed binder)
chain: MLPAPKNLVVSRVTEDSARLSWTAPDAAFDSFYIAYAEPRPDGEAIILVVPGSERSYDLTGLKPGTEYSVLIHGVKGGLLSSPLDAGFTT
notes: Tencon-based FN3 domain
B15: CD71-binding FN3 domain of SEQ ID NO: 334 (designed binder)
chain: MSLPAPKNLVVSRVTEDSARLSWTAPDAAFDSFEIAYQELSLWGEAIVLTVPGSERSYDLTGLKPGTEYWVQIGGVKGGIWSSPLVASFTT
notes: not shown: C-terminal poly-histidine tag added to each FN3 domain
B16: CD71-binding FN3 domain of SEQ ID NO: 234 (designed binder)
chain: MSLPAPKNLVVSRVTEDSARLSWTAPDAAFDSFFIGYLEPQPPGEAIALYVPGSERSYDLTGLKPGTEYNVTIQGVKGGFPSEPLVAHFTT
B17: CD71-binding FN3 domain of SEQ ID NO: 974 (designed binder)
chain: MSLPAPKNLVVSRVTEDSARLSWTAPDAAFDSFFIGYLEPQPPGEAIALYVPGSERSYDLTGLKPGTEYNVTIQGVKGGFPSLPLVATFTT
B18: CD71-binding FN3 domain of SEQ ID NO: 973 (designed binder)
chain: MSLPAPKNLVVSRVTEDSARLSWTAPDAAFDSFFIGYLEPQPPGEAIHLYVPGSERSYDLTGLKPGTEYNGTIQGVKVGFPSEPLIANFTT
B19: CD71-binding FN3 domain of SEQ ID NO: 331 (designed binder)
chain: MSLPAPKNLVVSRVTEDSARLSWTAPDAAFDSFFIGYLEPQPPGEAIHLYVPGSERSYDLTGLKPGTEYNVTIQGVKVGFPSEPLIANFTT
B20: CD71-binding FN3 domain of SEQ ID NO: 335 (designed binder)
chain: MSLPAPKNLVVSRVTEDSARLSWTAPDAAFDSFFIGYLEPQPPGEAIDLYVPGSERSYDLTGLKPGTEYNVTIQGVKGGFPSLPLVATFTT
B21: CD71-binding FN3 domain of SEQ ID NO: 290 (designed binder)
chain: MSLPAPKNLVVSRVTEDSARLSWTAPDAAFDSFFIGYLEPQPPGEAIHLYVPGSERSYDLTGLKPGTEYNVTIQGVKGGFPSEPLVATFTT
B22: CD71-binding FN3 domain of SEQ ID NO: 333 (designed binder)
chain: MSLPAPENLVVSRVTEDSARLSWTAPDAAFDSFFIGYLEPQPPGEAIALYVPGSERSYDLTGLKPGTEYNVTIQGVKGGFPSLPLVATFTT
B23: CD71-binding FN3 domain of SEQ ID NO: 264 (designed binder)
chain: MSLPAPKNLVVSRVTEDSARLSWTAPDAAFDSFFIGYLEPQPPGEAIALYVPGSERSYDLTGLKPGTEYNVTIQGVKGGFPSEPLVVHFTT
B24: CD71-binding FN3 domain of SEQ ID NO: 343 (designed binder)
chain: MSLPAPKNLVVSRVTEDSARLSWTAPDAAFDSFFIGYLEPQPPGEAIALWVPGSERSYDLTGLKPGTEYNVTIQGVKGGFPSEPLVATFTT
B25: CD71-binding FN3 domain of SEQ ID NO: 335 (designed binder)
chain: MSLPAPKNLVVSRVTEDSARLSWTAPDAAFDSFFIGYLEPQPPGEAIDLYVPGSERSYDLTGLKPGTEYNVTIQGVKGGFPSLPLVATFTT
notes: as for B15
B26: CD71-binding FN3 domain of SEQ ID NO: 972 (designed binder)
chain: MSLPAPKNLVVSRVTEDSARLSWTAPDAAFDSFFIGYLEPQPPGEAIALYVPGSERSYDLTGLKPGTEYNVTIQGAKGGFPSEPLVVHFTT
B27: CD71-binding FN3 domain of SEQ ID NO: 281 (designed binder)
chain: MSLPAPKNLVVSRVTEDSARLSWTAPDAAFDSFFIGYLEPQPPGEAIALYVPGSERSYDLTGLKPGTEYNVTIQGVKGGFPSEPLIANFTT
B28: CD71-binding FN3 domain of SEQ ID NO: 341 (designed binder)
chain: MSLPAPKNLVVSRVTEDSARLSWTAPDAAFDSFFIGYLEPQPPGEAIELYVPGSERSYDLTGLKPGTEYNVTIQGVKGGFPSLPLVAIFTT
B29: CD71-binding FN3 domain of SEQ ID NO: 270 (designed binder)
chain: MSLPAPKNLVVSRVTEDSARLSWTAPDAAFDSFFIGYLEPQPPGEAIHLYVPGSERSYDLTGLKPGTEYNVTIQGVKGGFPSEPLIANSTT

Assays:
[1] = molecular target: T1, human CD71 on cells (SKBR3; SW620-rLuc-KRAS) (human, UniProt P02786 1-760); assay: cell-based or functional assay
[2] = molecular target: T2, human CD71 extracellular domain (CD71-ECD) (human, UniProt P02786 89-760); assay: capture ELISA, 20 nM antigen on Neutravidin plate, FN3 titrated 250 to 0.3 nM
T2 construct: It was captured on a Neutravidin plate; also called hCD71; transferrin receptor 1 ECD
Protocol: (§1) Select CD71-binding FN3 domains identified in Example 4 above were chosen to determine their binding to both human and cynomolgus monkey CD71 extracellular domain (CD71-ECD). Capture ELISA using CD71 binding to FN3 domains was performed, with the FN3 domains being titrated from 250 nM to 0.3 nM. 20 nM of antigen was incubated on a Neutravidin® plate for 1 hour at room temperature. The FN3 domains were incubated for 16 hours at room temperature.

[3] = molecular target: T3, cynomolgus monkey CD71 extracellular domain (CD71-ECD) (cynomolgus monkey, UniProt H9EXL1 89-760 (rhesus entry)); assay: as above
T3 construct: extracellular domain; It was captured on a Neutravidin plate; also called cynomolgus CD71-ECD
Protocol: as §1

[4] = molecular target: T4, human CD71 extracellular domain (human, UniProt P02786 89-760); assay: primary ELISA screen, human CD71-ECD
T4 construct: also called hCD71; human CD71-ECD

[5] = molecular target: T5, apical domain of CD71 (Screen 3: 'cynomolgus apical domain of human CD71') (cynomolgus (as 'cynomolgus apical …)); assay: primary ELISA screen, apical domain of CD71
T5 construct: domain: apical domain; Species is told ambiguously

[6] = molecular target: T5, apical domain of CD71 (Screen 3: …); assay: primary ELISA screen, RLU on apical domain over RLU on HSA
[7] = molecular target: T4, human CD71 extracellular domain; assay: primary ELISA screen, RLU on human CD71-ECD over RLU on HSA
[8] = molecular target: T1, human CD71 on cells (SKBR3; …); assay: cell-based or functional assay; remark: listed apart in the source

T2 sequence (P02786 89-760): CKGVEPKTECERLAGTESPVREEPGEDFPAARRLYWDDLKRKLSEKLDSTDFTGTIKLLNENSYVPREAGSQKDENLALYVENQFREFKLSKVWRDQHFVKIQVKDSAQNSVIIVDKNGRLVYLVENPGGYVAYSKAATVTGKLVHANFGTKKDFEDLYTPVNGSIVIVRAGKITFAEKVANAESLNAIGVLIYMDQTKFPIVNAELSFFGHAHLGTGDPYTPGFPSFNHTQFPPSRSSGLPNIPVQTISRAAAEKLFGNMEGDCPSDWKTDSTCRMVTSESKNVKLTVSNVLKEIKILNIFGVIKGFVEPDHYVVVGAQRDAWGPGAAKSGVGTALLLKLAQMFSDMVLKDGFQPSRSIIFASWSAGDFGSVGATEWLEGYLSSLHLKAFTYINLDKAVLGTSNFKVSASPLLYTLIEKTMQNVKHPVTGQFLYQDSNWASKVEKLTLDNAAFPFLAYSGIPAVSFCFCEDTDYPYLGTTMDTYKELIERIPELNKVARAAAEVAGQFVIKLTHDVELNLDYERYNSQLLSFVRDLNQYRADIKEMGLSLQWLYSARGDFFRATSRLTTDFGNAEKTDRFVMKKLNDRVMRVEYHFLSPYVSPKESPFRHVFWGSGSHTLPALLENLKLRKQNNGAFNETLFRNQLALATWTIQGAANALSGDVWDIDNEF
T4 sequence (P02786 89-760): as above
T1 sequence (P02786 whole entry, the tested form may be a part): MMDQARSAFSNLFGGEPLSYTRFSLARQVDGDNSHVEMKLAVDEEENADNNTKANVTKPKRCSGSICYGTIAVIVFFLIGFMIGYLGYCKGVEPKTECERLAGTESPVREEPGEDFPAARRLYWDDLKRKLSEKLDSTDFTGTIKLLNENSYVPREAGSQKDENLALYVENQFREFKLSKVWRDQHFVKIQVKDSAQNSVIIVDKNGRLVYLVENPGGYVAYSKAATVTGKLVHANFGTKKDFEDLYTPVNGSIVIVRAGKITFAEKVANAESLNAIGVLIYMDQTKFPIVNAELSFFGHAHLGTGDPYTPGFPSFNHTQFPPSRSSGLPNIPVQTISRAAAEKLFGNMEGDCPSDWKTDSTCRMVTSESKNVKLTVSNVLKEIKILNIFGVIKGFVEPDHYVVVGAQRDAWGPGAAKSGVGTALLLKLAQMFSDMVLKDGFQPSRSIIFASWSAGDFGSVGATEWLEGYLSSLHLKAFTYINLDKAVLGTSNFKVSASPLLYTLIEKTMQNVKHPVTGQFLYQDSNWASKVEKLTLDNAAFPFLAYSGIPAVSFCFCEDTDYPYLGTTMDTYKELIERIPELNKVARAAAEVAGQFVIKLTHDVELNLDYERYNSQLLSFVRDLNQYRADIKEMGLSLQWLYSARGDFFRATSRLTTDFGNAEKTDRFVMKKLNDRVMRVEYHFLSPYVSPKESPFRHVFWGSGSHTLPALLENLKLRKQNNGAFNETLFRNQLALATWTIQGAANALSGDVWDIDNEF
T3 sequence (chain, as listed by the source): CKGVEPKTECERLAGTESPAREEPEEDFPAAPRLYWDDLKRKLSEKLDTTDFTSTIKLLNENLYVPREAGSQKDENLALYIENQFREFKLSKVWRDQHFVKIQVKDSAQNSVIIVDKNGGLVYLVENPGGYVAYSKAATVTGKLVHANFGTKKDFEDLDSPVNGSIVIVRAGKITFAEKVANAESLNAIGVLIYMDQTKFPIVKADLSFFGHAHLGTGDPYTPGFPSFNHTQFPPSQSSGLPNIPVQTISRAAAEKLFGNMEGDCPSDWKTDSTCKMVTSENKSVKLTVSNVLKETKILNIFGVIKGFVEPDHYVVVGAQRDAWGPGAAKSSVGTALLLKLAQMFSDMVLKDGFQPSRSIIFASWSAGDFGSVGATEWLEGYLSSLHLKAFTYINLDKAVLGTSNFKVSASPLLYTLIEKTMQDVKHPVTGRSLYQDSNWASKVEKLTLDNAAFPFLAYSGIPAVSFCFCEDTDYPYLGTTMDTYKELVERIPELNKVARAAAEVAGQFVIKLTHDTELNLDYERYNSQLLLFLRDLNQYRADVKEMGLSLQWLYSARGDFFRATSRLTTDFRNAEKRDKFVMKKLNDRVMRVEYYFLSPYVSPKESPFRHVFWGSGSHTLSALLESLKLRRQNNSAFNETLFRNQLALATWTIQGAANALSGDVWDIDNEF

| Binder | CTG EC50 (CellTiter-Glo luminescent assay, SKBR3 cells, 72 h) [1] [nM] | EC50 [2] [nM] | EC50 [3] [nM] | CTG EC50 (CellTiter-Glo luminescent assay, SKBR3 cells, 72 h) [8] [nM] | also measured |
| --- | --- | --- | --- | --- | --- |
| B1 | 0.3 | 0.4 | 0.7 | – | – |
| B2 | 8.4 | 2.2 | 10.6 | – | – |
| B3 | 0.6 | 0.4 | 0.6 | – | – |
| B4 | 7 | 2.3 | 2.7 | – | – |
| B5 | 3 | 3.9 | 10.6 | – | – |
| B6 | 9.8 | 14.1 | 23 | – | – |
| B7 | 71.5 | 3.2 | 5 | – | – |
| B8 | 0.4 | 0.91 | 1.6 | – | – |
| B9 | 2.9 | 2.8 | 4.3 | – | – |
| B10 | 1.2 | 2.5 | 24.9 | – | – |
| B11 | 12.6 | 4.3 | 34.9 | – | – |
| B12 | 1.5 | 5.5 | 14.2 | – | – |
| B13 | 2.7 | 2.1 | 17.7 | – | – |
| B14 | 14.4 | 10 | – | – | – |
| B15 | – | – | – | – | RLU [4]: 2.7e+06 RLU; RLU [5]: 5.45e+06 RLU; Apical domain:HSA [6]: 378 ratio; hCD71:HSA [7]: 188 ratio |
| B16 | – | – | – | 0.07 | – |
| B17 | – | – | – | 0.15 | – |
| B18 | – | – | – | 0.07 | – |
| B19 | – | – | – | 0.05 | – |
| B20 | – | – | – | 0.04 | – |
| B21 | – | – | – | 0.01 | – |
| B22 | – | – | – | 0.57 | – |
| B23 | – | – | – | 0.16 | – |
| B24 | – | – | – | 0.21 | – |
| B25 | – | – | – | – | RLU [4]: 5.34e+06 RLU; RLU [5]: 5.9e+06 RLU; Apical domain:HSA [6]: 103 ratio; hCD71:HSA [7]: 93 ratio |
| B26 | – | – | – | 0.04 | – |
| B27 | – | – | – | 0.06 | – |
| B28 | – | – | – | 0.11 | – |
| B29 | – | – | – | 0.57 | – |
